In patent US6649742:

Target: T1, human CD5 cell differentiation marker (human, UniProt P06127 25-495)
T1 sequence: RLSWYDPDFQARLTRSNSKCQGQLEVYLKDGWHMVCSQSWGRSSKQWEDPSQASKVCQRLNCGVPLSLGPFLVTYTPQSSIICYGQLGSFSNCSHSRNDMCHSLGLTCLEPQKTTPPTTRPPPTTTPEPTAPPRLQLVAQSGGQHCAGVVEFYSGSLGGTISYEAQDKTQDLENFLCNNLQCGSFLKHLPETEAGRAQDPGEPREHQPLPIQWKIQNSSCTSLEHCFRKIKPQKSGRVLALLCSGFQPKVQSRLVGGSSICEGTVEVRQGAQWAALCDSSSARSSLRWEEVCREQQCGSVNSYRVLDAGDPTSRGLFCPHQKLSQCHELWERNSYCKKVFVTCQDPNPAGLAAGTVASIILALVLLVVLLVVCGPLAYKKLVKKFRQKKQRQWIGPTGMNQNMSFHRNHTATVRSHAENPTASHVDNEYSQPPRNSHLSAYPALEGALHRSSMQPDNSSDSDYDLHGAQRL
Test: cell-based or functional assay

B1: he3Fab-rGelA50(C44) (other)
light: DIQMTQSPSSLSASVGDRVTITCRASQDINSYLSWFQQKPGKAPKTLIYRANRLESGVPSRFSGSGSGTDYTLTISSLQYEDFGIYYCQQYDESPWTFGGGTKLEIK
heavy: EIQLVQSGGGLVKPGGSVRISCAASGYTFTNYGMNWVRQAPGKGLEWMGWINTHTGEPTYADSFKGRFTFSLDDSKNTAYLQINSLRAEDTAVYFCTRRGYDWYFDVWGQGTTVTVSS
chain: GLDTVSFSTKGATYITYVNFLNELRVKLKPEGNSHGIPLLRKKCDDPGKAFVLVALSNDNGQLAEIAIDVTSVYVVGYQVRNRSYFFKDAPDAAYEGLFKNTIKTRLHFGGSYPSLEGEKAYRETTDLGIEPLRIGIKKLDENAIDNYKPTEIASSLLVVIQMVSEAARFTFIENQIRNNFQQRIRPANNTISLENKWGKLSFQIRTSGANGMFSEAVELERANGKKYYVTAVDQVKPKIALLKFVDKDPK
modifications: Cys 44 disulfide-linked to the M2IT linker on the Fab; lysine residues of the Fab derivatized with 5-methyl-2-iminothiolane (M2IT), 1 M2IT per Fab
Question: For B1, which “IC50 (pMT), CEM Cells; whole cell cytotoxicity (inhibition of protein synthesis)” value is on record?
Answer: Its value is 173 pMT.

Question: And the “IC50 (pMT), HSB2 Cells; whole cell cytotoxicity (inhibition of protein synthesis)” value?
Answer: The value was 165 pMT.
